The source of these data is patent US20110008344A1 (THOMAS JEFFERSON UNIVERSITY, published 2011).

Where two headings read alike, the source gives them in different places.

Broadly, the Kd is the concentration at which binding is half-saturated. One may read the kon as a measure of how fast the partners come together.

Test [1] addresses T1, recombinant 50 kD C-terminal BoNT/A domain (HC50A) (Clostridium botulinum, UniProt P0DPI1 861-1296). Briefly: KinExA, solution phase.
For test [2], the target named is T1, recombinant 50 kD C-terminal BoNT/A ….
Test [3] shares this target. As to the kind of experiment: SPR (Biacore 3000), 13A immobilized on CM5 chip, HC50A as analyte.
Test [4] has the same target. As to the kind of experiment: KinExA Direct Kinetics method, […]; KinExA, solution phase.

B1: botulinum neurotoxin 13A antibody (human monoclonal antibody produced by hybridoma 13A, ATCC PTA-8871) (antibody, V domains shown)
VH: EVQLVESGGGLVQPGRSLRLSCTASGFTFGDSAMSWVRQAPGKGLEWVGFIRGKPYGGKPEYAASVKGRFTISRDDSKSIAYLQMNSLKTEDTAVYYCTAGMTTVTIYDYWGQGTLVTVSS
VL: QPLSVSVALGQTAGITCEGNNIGSKNVHWYQQKPGQAPVLVIYRDSNRPSGIPERFSGFNSGNTATLTISRVQAGDEADYYCQVWDSSTGVFGGGTELTVLG
Take B1: the figures for the Kd in test [1] and in test [2] were 0.097 nM and 0.052 nM, respectively. Besides, the kon in test [3] was determined as 1.7e+07 M⁻¹ s⁻¹; in test [4] it was 7.2e+06 M⁻¹ s⁻¹.
